B1: VH00/VL00 (antibody, V domains shown)
VH: QSVEESGGRLVTPGTPLTLTCTVSGFSLSSNAINWVRQAPGKGLEWIGYIAVSGNTYYASWAKGRFTISKASTTVDLKMTSPTAEDTGTYFCGKSNIWGPGTLVTVSL
VL: AQVLTQTTSPVSAAVGSTVTISCQSSQSVRTNKLAWFQQKPGQPPKRLIYSASTLDFGVPSRFSASGSGTQFTLTISDVQCDDAATYYCLGYFDCSIADCVAFGGGTEVVVK
B2: VH32/VL22 (antibody, V domains shown)
VH: EVQVLESGGGLVQPGGSLRLSCAVSGFSLSSNAINWVRQAPGKGLEWVGYIAVSGNTYYASWAKGRFTISRDNSKNTVYLQMNSLRAEDTAVYYCGKSNIWGQGTLVTVSS
VL: AQVMTQSPSSLSASVGDRVTITCRSSQSVRTNRLAWFQQKPGQPPKRLIYSASTLDYGVPSRFSGSGSGTEFTLTISSLQPEDFATYYCLGYFDSSADIVAFGGGTKVEIK

Molecular target: T1, human tau(pS422) fragment SEQ ID NO: 03 (human)
T1 sequence (peptide, phosphoserine at 422 (tau numbering); biotinylated): SIDMVDXPQLATLAD
Experiment: ELISA, coated antigen

Binder	EC50
B1	6.3 ng/mL
B2	5.6 ng/mL

Source: US20170106084A1
